Reference: patent US20260028391A1 (HUMABS BIOMED, published 2026)
Substitutions are numbered along the chain they refer to. In names and notes the source's numbering stands.

Assays:
[1] = molecular target: fusion glycoprotein (F) of MPV A GFP (Tables 41 and 43) (metapneumovirus A); assay: cell-based or functional assay
[2] = molecular target: fusion glycoprotein (F) of RSV A GFP (Tables 41 and 42) (respiratory syncytial virus A); assay: cell-based or functional assay
[3] = molecular target: fusion glycoprotein (F) of RSV B GFP (Tables 41 and 42) (respiratory syncytial virus B); assay: cell-based or functional assay
DS-Cav1 RSV F = molecular target: T1, DS-Cav1 RSV F (respiratory syncytial virus); assay: ELISA on DS-Cav1 RSV F
T1 construct: also called DC-VCav1

[4] = molecular target: RSV fusion glycoprotein (RSV-F) (respiratory syncytial virus); assay: biolayer interferometry (BLI), rIgG1 with M428L/N434S
[5] = molecular target: fusion glycoprotein (F) of the MPV (non-D280N) used in the GFP-based neutralization assay of Table 23 (metapneumovirus); assay: cell-based or functional assay
[6] = molecular target: fusion glycoprotein (F) of the RSV used in the GFP-based neutralization assay of Table 23 (respiratory syncytial virus); assay: cell-based or functional assay
[7] = molecular target: fusion glycoprotein of the RSV used in the neutralization assay of Example 1 (respiratory syncytial virus (strain not …)); assay: cell-based or functional assay
RSV-B F = molecular target: T2, RSV-B F (RSV B); assay: BLI
T2 construct: also called RSV F B

RSV F B N208S = molecular target: T3, RSV F B N208S (RSV B); assay: FACS, % binding to RSV F B variants
T3 construct: whole, on cells; also called mutant N208S

RSV F B, B Ref = molecular target: T4, RSV F B, B Ref (RSV B); assay: FACS, % binding to RSV F B variants
T4 construct: whole, on cells

RSV F B K68N-N208S = molecular target: T5, RSV F B K68N-N208S (RSV B); assay: FACS, % binding to RSV F B variants
T5 construct: whole, on cells

RSV F B K68N-N201S = molecular target: T6, RSV F B K68N-N201S (RSV B); assay: FACS, % binding to RSV F B variants
T6 construct: whole, on cells

RSV F B N201S = molecular target: T7, RSV F B N201S (RSV B); assay: FACS, % binding to RSV F B variants
T7 construct: whole, on cells

RSV F B S443P = molecular target: T8, RSV F B S443P (RSV B); assay: FACS, % binding to RSV F B variants
T8 construct: whole, on cells; also called mutant S443P

RSV-A F = molecular target: T9, RSV-A F (RSV A); assay: BLI
T9 construct: also called RSV F A

[8] = molecular target: RSV A fusion glycoprotein (F), virus of the neutralisation assays of Tables 54 and 57 (RSV A); assay: cell-based or functional assay

B1: MPH12-rIgG1-LS (antibody, V domains shown)
VH: QVQLVESGGGLVKPGGSLRLSCVASGFTFSGFYMKWIRQAPGKGLEWVSSISASGSYTNYADSVEGRFTVSRDNAKNSLFLLMSSLRAEDTAVYYCARGDSYCGASACHGEFFHKWGQGTLVTVSS
VL: QSVLTQPPSVSGAPGQRVTISCTGSDSNIGADFDVHWYQQLPGTAPKLLIYGNINRPSGVPDRFSGSRSGTSAFLAITRLQAEDEADYYCQSYDRSLHYVFGAGTKVTVL
[1]
  IC50 (ng/ml), MPV A GFP neutralization: 13 ng/mL
[2]
  IC50 (ng/ml), RSV A GFP neutralization: 6.55 ng/mL
[3]
  IC50 (ng/ml), RSV B GFP neutralization: 5.23 ng/mL

B2: MPH12 VH / MPH12 VL-FRGL (antibody, V domains shown)
VH: B1 VH
VL: B1 VL with R68K, F74S, R79G, A103T
notes: MPH12 variant; VH and VL only
DS-Cav1 RSV F
  EC50: 35.8 ng/mL

B3: MPH12-v35 (VH-FRGL-D62E/VL-FRGL-D25S) (antibody, V domains shown)
VH: B1 VH with V23A, D62E, V70I, F80Y, L82Q, S84N
VL: B1 VL with D26S, R68K, F74S, R79G, A103T
[4]
  Kd: 0.46 nM
[5]
  MPV IC50 (ng/mL), GFP-based in vitro neutralization: 39.9 ng/mL
[6]
  RSV IC 50 (ng/mL), GFP-based in vitro neutralization: 57.5 ng/mL

B4: MPH12 VH / MPH12 VL-S26A (antibody, V domains shown)
VH: B1 VH
VL: B1 VL with S27A
notes: MPH12 variant; VH and VL only
DS-Cav1 RSV F
  EC50: 50.8 ng/mL

B5: MPH12 VH-FRGL-D62E / MPH12 VL-D25E (antibody, V domains shown)
VH: B1 VH with V23A, D62E, V70I, F80Y, L82Q, S84N
VL: B1 VL with D26E
notes: MPH12 variant; VH and VL only
DS-Cav1 RSV F
  EC50: 39.7 ng/mL

B6: MPK104-rIgG1-LS (antibody, V domains shown)
VH: EVQLVESGGGLVKPGGSLRLSCAASGFTIDGYGMNWVRQAPGKGLEWVSSISASSNYIYYADSMKGRFTISRDNGKNSLYLQMHSLRVEDTGVYYCARAPLEPPYFDLWGRGTLVTVSS
VL: QSVLTQPPSVSGAPGQRVTISCSGGSSNIGAGYDVHWYQQVPGKGPKVLIYGNNNRPSGVPDRFSGSNFGASASLAITGLQADDEADYFCQSYDRRLGGPVFGGGTKLTVL
[1]
  IC50 (ng/ml), MPV A GFP neutralization: 6.79 ng/mL
[2]
  IC50 (ng/ml), RSV A GFP neutralization: 7.44 ng/mL
[3]
  IC50 (ng/ml), RSV B GFP neutralization: 5.23 ng/mL

B7: MPK169-v2 (antibody, V domains shown)
VH: EVQLVQSGAEVKKPGESLTISCQTSGYSFINYWIGWVRQMPGKGLEWMGVIYPFDSDTEYSPSFRGHVTISADKSINTAYLQWNSLGASDTAMYYCARFTFGIALVSGDVNGEGHAFDVWGRGTLVTVSS
VL: EIVLTQSPPTLSVSPGQRATLSCRASQSVADKLAWYQQRPGQAPRLLIYGASSRATGVPARFSGSGSETEFTLTITSLQSEDFALYYCHQYNNWPHAFGQGTRLVIK
[7]
  RSV Neutralization - IC50: 1.4 ng/mL

B8: MPK176-v4.3 (antibody, V domains shown)
VH: QVQLVQSGAEVKKPGASVRVSCKASGYTLTAYGISWVRQAPGQGLEWMGWISPKHGSTHYAQRFQGRVTMTTDTSTSTAYMELRSLRPDDTAVYFCAREGVDIMAVPWYFDYWGQGTLVAVSS
VL: SYVLTQPPSVSVAPGQTARISCGGNNIGSKSVHWYQQKPGQAPVVVVYDDSKRPSGIPERFSGSNSGNTATLTISGVEAGDEADYFCQVWDSATDHWVFGGGTKLTVL
RSV-B F
  Kd: 0.0117 nM
RSV F B N208S
  % binding: 61.2%
RSV F B, B Ref
  % binding: 34.2%
RSV F B K68N-N208S
  % binding: 59.3%
RSV F B K68N-N201S
  % binding: 60.4%
RSV F B N201S
  % binding: 60.6%
RSV F B S443P
  % binding: 29.8%
RSV-A F
  Kd: 0.139 nM
[8]
  IC50, neutralization of RSVA: 4.35 ng/mL

B9: MPK77-rIgG1-LS (antibody, V domains shown)
VH: EVQLVESGGGLVKPGGSLRLSCAASKSFSGYYMIWIRQAPGRGLEWIADISGSSTYTDYADSVKGRFTISRDNTRNTLYLQMNSLRPEDTAVYYCATEQVPSPGPFDLWGPGTLVTVSS
VL: QSVLTQPPSVSGAPGQRVIISCTGSSSNIGAGYDVHWYQQFPGTSPKLLIYRNTNRPSGVPDRFSGFKSGASAALAITGLQAEDEADYYCQSYDRSLSGWAFGGGTKVTVL
[1]
  IC50 (ng/ml), MPV A GFP neutralization: 12.9 ng/mL
[2]
  IC50 (ng/ml), RSV A GFP neutralization: 6.77 ng/mL
[3]
  IC50 (ng/ml), RSV B GFP neutralization: 7.32 ng/mL
